Measurements from US6960343B2, “Toll/interleukin-1 receptor adapter protein (TIRAP)” (Yale University School of Medicine, priority 2001, dated 2005).

Columns and labels:
[1] = molecular target: T1, TLR4 (Homo sapiens, UniProt O00206); experiment: Co-immunoprecipitation with Myc-tagged TLR4 in 293T cells; assay type: binding; details: 293T cell lysates, anti-Flag immunoprecipitation
T1 construct: a Myc-tagged TLR4 deletion construct lacking the ectodomain (Myc TLR4 wt); Myc; expressed in transfected cells; host or cells: 293T cells
T1 sequence (O00206 653-839 limits assumed): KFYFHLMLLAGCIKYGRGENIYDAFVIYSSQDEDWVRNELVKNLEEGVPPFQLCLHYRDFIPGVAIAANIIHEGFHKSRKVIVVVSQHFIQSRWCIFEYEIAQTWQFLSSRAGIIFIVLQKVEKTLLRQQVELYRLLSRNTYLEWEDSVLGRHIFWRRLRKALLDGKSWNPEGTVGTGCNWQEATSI
Text: (§1) Cells were transfected in the presence (+) or absence (−) of constructs encoding a wild-type portion of TLR4 (TLR4 wt), a mutant derivative thereof (TLR4 mut), wild-type TIRAP (TIRAP), a mutant TIRAP containing a P125H mutation (TIRAP PH), or wild-type MyD88 (MyD88), wherein each construct further encodes a Myc, Flag, or hemaglutanin (HA) tag, as indicated. Antibodies used for immunoprecipitation (IP) or immunoblot (IB) are indicated to the left of each blot.
(§2) To obtain biochemical conformation for a role of TIRAP in the TLR4 signaling pathway, TIRAP-TLR4 protein interactions were evaluated using co-immunoprecipitation experiments. 293T cells were co-transfected with 4.5 μg of a Myc-tagged TLR4 deletion construct lacking the ectodomain (Myc TLR4 wt) or its mutant derivative (Myc TLR4 P714H) in the presence or absence of 1.5 μg of Flag-tagged TIRAP (Flag TIRAP) or its mutant derivative containing the P125H mutation (Flag TIRAP PH). […] Immunocomplexes were washed, separated by SDS-PAGE electrophoresis, and then analyzed by immunoblotting with either anti-myc antibody to look for co-immunoprecipitated TLR4 or anti-Flag antibody to confirm immunoprecipitation of Flag TIRAP or Flag TIRAP P125H. Total cell lysates (35 μg/sample) were likewise analyzed by SDS-PAGE and immunoblotting to confirm equivalent expression of the appropriate proteins in every sample. […]

[2] = molecular target: T2, MyD88 (Homo sapiens, UniProt Q99836); experiment: Co-immunoprecipitation with Flag-tagged MyD88 in 293T cells; assay type: binding; details: 293T cell lysates
T2 construct: Flag; expressed in transfected cells; host or cells: 293T cells
T2 sequence (Q99836 whole entry, species assumed): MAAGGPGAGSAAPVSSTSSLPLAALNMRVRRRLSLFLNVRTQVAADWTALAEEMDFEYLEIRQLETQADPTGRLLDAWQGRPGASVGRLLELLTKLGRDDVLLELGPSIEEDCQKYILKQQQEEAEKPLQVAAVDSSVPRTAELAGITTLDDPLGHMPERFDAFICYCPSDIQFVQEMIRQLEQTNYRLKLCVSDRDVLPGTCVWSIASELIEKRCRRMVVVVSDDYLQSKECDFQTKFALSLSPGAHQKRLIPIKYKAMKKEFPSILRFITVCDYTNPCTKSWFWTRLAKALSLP
Text: as §1
as §2, with “experiments.” for “experiments. 293T cells were co-transfected with 4.5 μg of a Myc-tagged TLR4 deletion construct lacking the ectodomain (Myc TLR4 wt) or its mutant derivative (Myc TLR4 P714H) in the presence or absence of 1.5 μg of Flag-tagged TIRAP (Flag TIRAP) or its mutant derivative containing the P125H mutation (Flag TIRAP PH).”
(§3) Similarly, the interaction between TIRAP and MyD88 was examined. […] Direct interactions between TIRAP and the TIR domain of TLR4 was also detected using in vitro glutathione S transferase (GST) pull-down assays.

[3] = molecular target: IRAK (Homo sapiens, UniProt P51617); experiment: Association with IRAK; assay type: binding
Sequence of IRAK (P51617 whole entry, species assumed): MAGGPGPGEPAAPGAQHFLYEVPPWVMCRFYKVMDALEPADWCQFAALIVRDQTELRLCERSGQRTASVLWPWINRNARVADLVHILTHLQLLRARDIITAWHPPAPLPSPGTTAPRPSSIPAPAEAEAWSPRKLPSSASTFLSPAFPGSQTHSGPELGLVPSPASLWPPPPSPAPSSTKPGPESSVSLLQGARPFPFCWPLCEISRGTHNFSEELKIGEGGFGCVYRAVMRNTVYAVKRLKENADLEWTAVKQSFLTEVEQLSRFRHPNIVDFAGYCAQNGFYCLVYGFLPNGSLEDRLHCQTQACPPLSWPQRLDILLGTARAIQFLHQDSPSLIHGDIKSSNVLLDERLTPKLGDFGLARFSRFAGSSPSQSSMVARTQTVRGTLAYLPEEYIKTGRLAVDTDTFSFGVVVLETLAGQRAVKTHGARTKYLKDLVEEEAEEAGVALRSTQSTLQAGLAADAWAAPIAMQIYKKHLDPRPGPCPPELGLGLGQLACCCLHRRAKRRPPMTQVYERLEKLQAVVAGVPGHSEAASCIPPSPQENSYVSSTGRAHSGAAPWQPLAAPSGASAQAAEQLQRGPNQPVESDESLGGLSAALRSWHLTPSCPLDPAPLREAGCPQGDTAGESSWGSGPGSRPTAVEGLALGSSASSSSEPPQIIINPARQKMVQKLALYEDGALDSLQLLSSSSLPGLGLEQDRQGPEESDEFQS

[4] = molecular target: T3, TIRAP (Homo sapiens, UniProt P58753); experiment: Co-immunoprecipitation of HA TIRAP with Flag TIRAP (homodimerization); assay type: binding; details: 293T cell lysates
T3 construct: Flag; expressed in transfected cells; host or cells: 293T cells
T3 sequence (P58753 1-235 isoform P58753-2): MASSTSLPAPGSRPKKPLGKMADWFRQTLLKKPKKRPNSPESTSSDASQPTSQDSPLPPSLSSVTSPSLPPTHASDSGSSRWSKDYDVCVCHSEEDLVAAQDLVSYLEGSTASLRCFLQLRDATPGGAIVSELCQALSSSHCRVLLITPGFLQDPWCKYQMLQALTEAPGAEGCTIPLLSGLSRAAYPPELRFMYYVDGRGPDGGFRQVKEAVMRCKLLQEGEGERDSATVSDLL
Text: as §1
as §2, with “experiments.” for “experiments. 293T cells were co-transfected with 4.5 μg of a Myc-tagged TLR4 deletion construct lacking the ectodomain (Myc TLR4 wt) or its mutant derivative (Myc TLR4 P714H) in the presence or absence of 1.5 μg of Flag-tagged TIRAP (Flag TIRAP) or its mutant derivative containing the P125H mutation (Flag TIRAP PH).”
as §3

[5] = molecular target: T4, TIR domain of TLR4 (Homo sapiens, UniProt O00206); experiment: In vitro glutathione S transferase (GST) pull-down assay; assay type: binding
T4 sequence (O00206 672-815 limits assumed): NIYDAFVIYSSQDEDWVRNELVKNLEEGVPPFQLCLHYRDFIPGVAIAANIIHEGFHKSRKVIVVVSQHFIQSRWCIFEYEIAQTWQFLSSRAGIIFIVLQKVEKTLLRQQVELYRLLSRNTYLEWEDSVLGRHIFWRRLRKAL
Procedure: Similarly, the interaction between TIRAP and MyD88 was examined. 293T cells were transfected with 1.5 μg of either HA-tagged TIRAP (HA TIRAP) alone or in combination with 1.5 μg of either Flag-tagged MyD88 (Flag MyD88), Flag-tagged TIRAP (Flag-TIRAP), or Flag-tagged TIRAP P125H (Flag TIRAP PH). Immunoprecipitation and analyses of immunocomplexes as well as total cell lysates were done as described above. […] Direct interactions between TIRAP and the TIR domain of TLR4 was also detected using in vitro glutathione S transferase (GST) pull-down assays.

[6] = tested on: PKR; experiment: Co-immunoprecipitation with HA PKR kinase dead mutant in 293T cells; assay type: binding; details: 293T cell lysates
Procedure: (§4) (A) Bone marrow-derived macrophages from either wild-type (WT) or MyD88-deficient (MyD88^−/−) mice were stimulated for the indicated time periods (minutes) with either LPS or CpG, and immunoblots were performed using an antibody that specifically recognizes phosphorylated PKR (PKR-P). B and C Cells were transfected with constructs encoding Flag-tagged TIRAP and either a construct encoding an HA-tagged kinase dead mutant of PKR (HA PKR KD) or p58, as indicated. Antibodies used for immunoprecipitation (IP) or immunoblot (IB) are indicated to the left of each blot, and arrows on the right show the location of the indicated proteins.
To determine whether PKR and TIRAP interact, lysates from 293T cells transfected with either 3.5 μg of an HA PKR kinase dead (KD) mutant […] 1.5 μg of Flag TIRAP were subjected to immunoprecipitation analyses as described above, followed by SDS-PAGE and immunoblotting with the indicated antibodies. The PKR KD mutant rather than wild type PKR was used because overexpressing PKR induces cell death. PKR did, in fact, co-immunoprecipitate with TIRAP (FIG. 4B), further supporting the link between PKR and TIRAP established above.

[7] = tested on: p58; experiment: Co-immunoprecipitation with p58 in 293T cells; assay type: binding; details: 293T cell lysates
Procedure: as §4
(§5) Because TIRAP may not regulate PKR directly, the interaction between TIRAP and two other proteins, p58 and PACT, was analyzed. p58 is a tetratricopeptide repeat-containing protein that negatively regulates PKR activity (Lee 1994), and PACT is a dsRNA-binding domain-containing protein that activates PKR in response to cellular stress (Patel 19980). Lysates from 293T cells transfected with either p58-encoding vector (3.5 μg) or PACT (3.5 μg) and Flag TIRAP (1.5 μg) were subject to immunoprecipitation analyses followed by SDS-PAGE and immunoblotting with the indicated antibodies.

[8] = molecular target: T5, PACT (Homo sapiens, UniProt O75569); experiment: Co-immunoprecipitation with PACT in 293T cells; assay type: binding; details: 293T cell lysates
T5 construct: expressed in transfected cells; host or cells: 293T cells
T5 sequence (O75569 1-313): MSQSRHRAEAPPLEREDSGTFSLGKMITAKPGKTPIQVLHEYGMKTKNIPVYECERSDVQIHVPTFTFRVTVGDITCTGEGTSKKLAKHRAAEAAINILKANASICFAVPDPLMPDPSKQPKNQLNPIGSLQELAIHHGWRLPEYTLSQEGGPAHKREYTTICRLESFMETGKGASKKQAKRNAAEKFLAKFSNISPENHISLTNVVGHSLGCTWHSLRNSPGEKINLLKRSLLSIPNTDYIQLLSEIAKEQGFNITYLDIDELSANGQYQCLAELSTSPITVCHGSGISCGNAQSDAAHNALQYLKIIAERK
Procedure: as §5

[9] = tested on: NF-κB promoter; experiment: NF-κB-dependent luciferase reporter assay, 293T cells co-transfected with TIRAP constructs; details: 2.0 μg construct, 24 h post-transfection
Procedure: To determine the effect of various TIRAP constructs on the promoter activity of NF-κB, 293T cells were co-transfected with 2.0 μg of the indicated TIRAP construct and 0.1 μg of an NF-κB-dependent luciferase reporter gene. pcDNA3 is an empty vector control; TIRAP is a vector encoding the full length TIRAP protein; TIRAP N is a vector encoding the N-terminal domain of TIRAP; TIRAP C is a vector encoding the C terminal domain of TIRAP; and TIRAP P125H is a vector encoding a mutant form of TIRAP containing a proline to histidine mutation at amino acid position 125. Cells were harvested 24 h post-transfection and lysed for analysis in a standard luciferase reporter assay. Luciferase activity is expressed as fold induction relative to mock transfected cells (FIG. 2A).

TIRAP: vector encoding the full length TIRAP protein (Toll/Interleukin-1 Receptor Adapter Protein)
co-immunoprecipitation with TLR4 [1]: co-immunoprecipitate | interaction with MyD88 (co-immunoprecipitation) [2]: does not interact | association with IRAK [3]: failed to associate | co-immunoprecipitation of TIRAP with itself (homodimerization) [4]: can be co-immunoprecipitated with itself | direct interaction with the TIR domain of TLR4 [5]: detected | co-immunoprecipitation with PKR [6]: co-immunoprecipitate | co-immunoprecipitation with p58 [7]: immunoprecipitate | co-immunoprecipitation with PACT [8]: immunoprecipitate | activation of the NF-κB promoter, luciferase activity as fold induction relative to mock transfected cells [9]: approximately 80 fold induction
